{"source": "patent US20070196376A1", "about": "(AstraZeneca / MedImmune, published 2007)", "binders": {"B1": {"name": "mAb 7.34.1 (ATCC Accession Number PTA-7423) (antibody, V domains shown)", "VH": "QVQLQESGPGLVKPSETLSLTCTVSGGSISSYYWSWIRQPPGRGLEWIGYFFYSGYTNYNPSLKSRVTMSVDTSKNQFSLKLSSVTAADTAVYYCACITGTTKGGMDVWGQGATVTVSS", "VL": "QSVLTQAPSVSGAPGQRVTISCTGRSSNIGAGYDVHWYQQFPGTAPKLLIYGNSNRPSGVPDRFSGSKSGTSASLAITGLQAEDEADYYCQSYDSSLSGSVFGGGTKLTVLG", "notes": "Fully human, lambda light chain (V1-13/JL2)"}, "B2": {"name": "mAb 7.158.2 (antibody, V domains shown)", "VH": "QLQLQESGPGLVKPSETLSLTCTVSGGSIRSSSYYWGWIRQPPGKGLEWIGGIYYSGSTYYNPSLKSRVTMSVDTSKNQFSLKLSSVTAADTAVYYCARQRGHSSGWWYFDLWGRGTLVTVSS", "VL": "DIQMTQSPSSVSASVGDSVTITCRASQGISSYLAWYQQKPGKAPKLLIYAASSLQSGVPSRFSGNGSGTDFTLTISSLQPEDFATYYCQQANNFPFTFGPGTKVDIKR", "notes": "Kappa light chain (L5/JK3); also called 7.158.1; 7_158_1"}, "B3": {"name": "mAb 7.158.2 (antibody, V domains shown)", "VH": "B2 VH", "VL": "B2 VL", "notes": "also called 7.158.1; 7_158_1"}, "B4": {"name": "mAb 7.234.2 (antibody, V domains shown)", "VH": "B2 VH with R30N, Y34N, E48A, K66R", "VL": "B2 VL with S18R, Q27R, Y32W, K39R, A50T, N65S, N93S", "notes": "also called 7.234.1; 7_234_1"}, "B5": {"name": "mAb 7.159.2 (ATCC Accession Number PTA-7424) (antibody, V domains shown)", "VH": "QVQLVQSGAEVKKPGASVKVSCKASGYTFTSYDINWVRQATGQGLEWMGWMNPNSGNTGYAQKFQGRVTMTRNTSISTAYMELSSLRSEDTAVYYCARDPYYYYYGMDVWGQGTTVTVSS", "VL": "QSVLTQPPSVSAAPGQKVTISCSGSSSNIENNHVSWYQQLPGTAPKLLIYDNNKRPSGIPDRFSGSKSGTSATLGITGLQTGDEADYYCETWDTSLSAGRVFGGGTKLTVLG", "notes": "Fully human, lambda light chain (V1-19/JL2); also called 7.159.1; 7_159_1"}}, "key": {"human insulin": {"target": "T1, human insulin (human, UniProt P01308 25-54; P01308 90-110, limits assumed)", "T1 construct": "The mature hormone has an A and a B chain cut from the precursor; also called recombinant insulin; hu-Insulin", "assay": "Biacore, mAb on CM5 chip, insulin injected"}, "[1]": {"target": "T2, Recombinant human IGF-I (insulin-like growth factor-I) (human, UniProt P05019 49-118)", "T2 construct": "Bought; also called IGF1; IGF-1", "assay": "limited antigen ELISA, supernatant 1:25"}, "[2]": {"target": "T3, Recombinant human IGF-II (insulin-like growth factor-II) (human, UniProt P01344 25-91)", "T3 construct": "Bought; also called IGF2; IGF-2", "assay": "limited antigen ELISA, supernatant 1:25"}, "IGF-I/IGFBP-3 complex": {"target": "T4, IGF-I/IGFBP-3 complex (UniProt P05019 49-118)", "T4 construct": "Preformed non-covalent complex; IGF-I 99.97% complexed by IGFBP-3; also called complexed IGF-I/IGFBP-3", "assay": "Biacore, mAb immobilised, preformed complex injected"}, "IGF-II/IGFBP-3 complex": {"target": "T5, IGF-II/IGFBP-3 complex (UniProt P01344 25-91)", "T5 construct": "Preformed non-covalent complex; IGF-II 99.97% complexed by IGFBP-3; also called complexed IGF-II/IGFBP-3", "assay": "Biacore, mAb immobilised, preformed complex injected"}, "[3]": {"target": "T6, human insulin-like growth factor-I (IGF-I) (human, UniProt P05019 49-118)", "assay": "cell-based or functional assay"}, "[4]": {"target": "T7, human insulin-like growth factor-II (IGF-II) (human, UniProt P01344 25-91)", "assay": "cell-based or functional assay"}, "[5]": {"target": "T6, human insulin-like growth factor-I …", "assay": "cell-based or functional assay", "remark": "listed apart in the source"}, "[6]": {"target": "T7, human insulin-like growth factor-II …", "assay": "cell-based or functional assay", "remark": "listed apart in the source"}, "[7]": {"target": "T6, human insulin-like growth factor-I …", "assay": "cell-based or functional assay", "remark": "listed apart in the source"}, "[8]": {"target": "T7, human insulin-like growth factor-II …", "assay": "cell-based or functional assay", "remark": "listed apart in the source"}, "[9]": {"target": "T7, human insulin-like growth factor-II …", "assay": "cell-based or functional assay", "remark": "listed apart in the source"}, "[10]": {"target": "T6, human insulin-like growth factor-I …", "assay": "Biacore low-resolution screen, mAb captured, IGF-I injected"}, "[11]": {"target": "T7, human insulin-like growth factor-II …", "assay": "Biacore low-resolution screen, mAb captured, IGF-II injected"}}, "note": "Changes are numbered by the printed parent chain."}
{"binder": "B1", "values": [{"measurement": "binding result", "setting": "human insulin", "value": "no binding (tested: 502 nM)"}, {"measurement": "LA OD, IGF1 2 ng/ml", "setting": "[1]", "value": 0.21, "unit": "OD 450 nm"}, {"measurement": "LA OD, IGF1 4 ng/ml", "setting": "[1]", "value": 0.44, "unit": "OD 450 nm"}, {"measurement": "LA OD, IGF2 2 ng/ml", "setting": "[2]", "value": 1.07, "unit": "OD 450 nm"}, {"measurement": "LA OD, IGF2 4 ng/ml", "setting": "[2]", "value": 1.84, "unit": "OD 450 nm"}, {"measurement": "Kd", "setting": "IGF-I/IGFBP-3 complex", "value": "> 1000", "unit": "nM"}, {"measurement": "Kd", "setting": "IGF-II/IGFBP-3 complex", "value": "> 1000", "unit": "nM"}]}
{"binder": "B2", "values": [{"measurement": "% MAX Activation, mean (n = 2), IGF-I pTYR of hIGF-IR in NIH3T3 cells", "setting": "[3]", "value": 22.7, "unit": "%"}, {"measurement": "EC50 (nM), mean (n = 2), IGF-I pTYR of hIGF-IR in NIH3T3 cells", "setting": "[3]", "value": 28.3, "unit": "nM"}, {"measurement": "% MAX Activation, mean (n = 2), IGF-II pTYR of hIGF-IR in NIH3T3 cells", "setting": "[4]", "value": 33.7, "unit": "%"}, {"measurement": "EC50 (nM), mean (n = 2), IGF-II pTYR of hIGF-IR in NIH3T3 cells", "setting": "[4]", "value": 11.3, "unit": "nM"}, {"measurement": "% Inhibition, mean (n = 3), IGF-I Proliferation Assay, NIH3T3/hIGF-IR cells", "setting": "[5]", "value": 57.4, "unit": "%"}, {"measurement": "EC50 (nM), mean (n = 3), IGF-I Proliferation Assay, NIH3T3/hIGF-IR cells", "setting": "[5]", "value": 42.8, "unit": "nM"}, {"measurement": "% Inhibition, mean (n = 2), IGF-II Proliferation Assay, NIH3T3/hIGF-IR cells", "setting": "[6]", "value": 54.6, "unit": "%"}, {"measurement": "EC50 (nM), mean (n = 2), IGF-II Proliferation Assay, NIH3T3/hIGF-IR cells", "setting": "[6]", "value": 36, "unit": "nM"}, {"measurement": "EC50 (nM), n = 1, IGF-I pTYR, BxPC3 cells", "setting": "[7]", "value": 4.5, "unit": "nM"}, {"measurement": "EC50 (nM), n = 2, IGF-I pTYR, BxPC3 cells", "setting": "[7]", "value": 3.6, "unit": "nM"}, {"measurement": "Max % Inhibition (333.3 nM), n = 1, IGF-I pTYR, BxPC3 cells", "setting": "[7]", "value": 92.9, "unit": "%"}, {"measurement": "Max % Inhibition (333.3 nM), n = 2, IGF-I pTYR, BxPC3 cells", "setting": "[7]", "value": 89.4, "unit": "%"}, {"measurement": "EC50 (nM), n = 2, IGF-II pTYR, BxPC3 cells", "setting": "[8]", "value": 4.2, "unit": "nM"}, {"measurement": "Max % Inhibition (133.3 nM), n = 2, IGF-II pTYR, BxPC3 cells", "setting": "[8]", "value": 74, "unit": "%"}, {"measurement": "Max % Inhibition (333.3 nM), n = 1, IGF-II pTYR, BxPC3 cells", "setting": "[8]", "value": 92.4, "unit": "%"}, {"measurement": "EC50 (nM), n = 1, IGF-II Proliferation, BxPC3 cells", "setting": "[9]", "value": 0.0013, "unit": "nM"}, {"measurement": "Max % Inhibition (133.3 nM), n = 2, IGF-II Proliferation, BxPC3 cells", "setting": "[9]", "value": 148, "unit": "%"}, {"measurement": "Max % Inhibition (333.3 nM), n = 1, IGF-II Proliferation, BxPC3 cells", "setting": "[9]", "value": 86.3, "unit": "%"}, {"measurement": "Kd", "setting": "[10]", "value": 0.5, "unit": "nM"}, {"measurement": "koff", "setting": "[10]", "value": 0.0022, "unit": "s⁻¹"}, {"measurement": "kon", "setting": "[10]", "value": "4.4e+06", "unit": "M⁻¹ s⁻¹"}, {"measurement": "Kd", "setting": "[11]", "value": 0.197, "unit": "nM"}, {"measurement": "koff", "setting": "[11]", "value": 0.00067, "unit": "s⁻¹"}, {"measurement": "kon", "setting": "[11]", "value": "3.4e+06", "unit": "M⁻¹ s⁻¹"}]}
{"binder": "B3", "values": [{"measurement": "LA OD, IGF1 2 ng/ml", "setting": "[1]", "value": 1.71, "unit": "OD 450 nm"}, {"measurement": "LA OD, IGF1 4 ng/ml", "setting": "[1]", "value": 3, "unit": "OD 450 nm"}, {"measurement": "LA OD, IGF2 2 ng/ml", "setting": "[2]", "value": 1.42, "unit": "OD 450 nm"}, {"measurement": "LA OD, IGF2 4 ng/ml", "setting": "[2]", "value": 2.46, "unit": "OD 450 nm"}]}
{"binder": "B4", "values": [{"measurement": "binding result", "setting": "human insulin", "value": "no binding (tested: 502 nM)"}, {"measurement": "LA OD, IGF1 2 ng/ml", "setting": "[1]", "value": 0.7, "unit": "OD 450 nm"}, {"measurement": "LA OD, IGF1 4 ng/ml", "setting": "[1]", "value": 1.79, "unit": "OD 450 nm"}, {"measurement": "LA OD, IGF2 2 ng/ml", "setting": "[2]", "value": 1.4, "unit": "OD 450 nm"}, {"measurement": "LA OD, IGF2 4 ng/ml", "setting": "[2]", "value": 2.44, "unit": "OD 450 nm"}]}
{"binder": "B5", "values": [{"measurement": "binding result", "setting": "human insulin", "value": "no binding (tested: 502 nM)"}, {"measurement": "LA OD, IGF1 2 ng/ml", "setting": "[1]", "value": 0.56, "unit": "OD 450 nm"}, {"measurement": "LA OD, IGF1 4 ng/ml", "setting": "[1]", "value": 0.98, "unit": "OD 450 nm"}, {"measurement": "LA OD, IGF2 2 ng/ml", "setting": "[2]", "value": 1.65, "unit": "OD 450 nm"}, {"measurement": "LA OD, IGF2 4 ng/ml", "setting": "[2]", "value": 2.47, "unit": "OD 450 nm"}, {"measurement": "Kd", "setting": "IGF-I/IGFBP-3 complex", "value": "> 1000", "unit": "nM"}, {"measurement": "Kd", "setting": "IGF-II/IGFBP-3 complex", "value": "> 1000", "unit": "nM"}]}
